From article doi:10.1101/2025.08.28.672867, “Catalytic pocket of Clr4 (Suv39h) methyltransferase serves as a substrate receptor for Cullin 4-dependent histone H3 ubiquitination” (bioRxiv, 2025) come the findings set out here.

In one assay the target is T1, 6×His-MBP-Raf1 (S. pombe, UniProt O74910 1-638).
T1 construct: Raf1 (Rik1-associated factor 1, DDB2 homolog), S. pombe; Expressed from one bacmid with Raf2, Rik1 and Cul4 and purified with them; A TEV site lies between MBP and Raf1; also called Raf1-MBP; Raf1 (DDB2 homolog); source: Hi5 insect cells (baculovirus), purified (Ni-NTA, amylose, SEC) together with Raf2, Rik1 and Cul4; not shown: His6, N-terminal, kept; MBP, N-terminal, kept
T1 sequence (looked up): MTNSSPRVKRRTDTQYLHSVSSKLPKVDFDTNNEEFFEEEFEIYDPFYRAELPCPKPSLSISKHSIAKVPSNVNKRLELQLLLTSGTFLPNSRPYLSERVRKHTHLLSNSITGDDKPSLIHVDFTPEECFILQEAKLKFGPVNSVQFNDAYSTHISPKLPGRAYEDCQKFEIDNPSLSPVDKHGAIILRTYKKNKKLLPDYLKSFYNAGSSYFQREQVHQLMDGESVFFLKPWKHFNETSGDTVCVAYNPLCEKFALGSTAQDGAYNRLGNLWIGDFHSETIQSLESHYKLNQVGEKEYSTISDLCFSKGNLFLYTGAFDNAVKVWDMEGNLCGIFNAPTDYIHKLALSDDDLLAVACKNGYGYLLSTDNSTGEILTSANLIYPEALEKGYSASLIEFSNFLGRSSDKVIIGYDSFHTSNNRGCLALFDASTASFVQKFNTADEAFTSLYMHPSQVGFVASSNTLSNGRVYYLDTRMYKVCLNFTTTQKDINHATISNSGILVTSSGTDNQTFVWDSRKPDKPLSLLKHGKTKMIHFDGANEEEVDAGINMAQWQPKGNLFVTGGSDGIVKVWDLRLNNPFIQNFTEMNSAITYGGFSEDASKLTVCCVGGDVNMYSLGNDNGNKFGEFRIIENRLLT
The assay can be described thus: pull-down; MBP-Raf1 held on amylose resin and incubated with Clr4 FL or fragments (legend: 'MBP pulldown assays of CLRC subunits'); 1:1 molar ratio, 30 min on ice, resin 1 h at 4 °C; wash 20 mM HEPES pH 7.5, 150 mM NaCl, 0.02% Triton X-100; SDS-PAGE. As to conditions: both partners purified.

Assay [1] addresses T2, CLRC complex lacking Clr4 (CLRC^-Clr4): 6×His-MBP-Raf1, Raf2, Rik1 and Cul4 (S. pombe, UniProt O74910 1-638; O74560 1-636; Q10426 1-1040; O14122 1-734).
T2 construct: Raf1 (DDB2 homolog), S. pombe; as the chain of m2; Raf2, S. pombe; as the chain of m3; Rik1 (DDB1 homolog), S. pombe; as the chain of m4; Cullin 4, S. pombe; as the chain of m5; also called four-subunit CLRC complex; CLRC minus Clr4; source: Hi5 insect cells (baculovirus, single bacmid), purified (Ni-NTA, amylose, SEC on Superose 6 Increase); not shown: His6, N-terminal, kept; MBP, N-terminal, …
Described as above. Conditions: both partners purified.

T2 sequence (O74560 whole entry, chain 2 of 3): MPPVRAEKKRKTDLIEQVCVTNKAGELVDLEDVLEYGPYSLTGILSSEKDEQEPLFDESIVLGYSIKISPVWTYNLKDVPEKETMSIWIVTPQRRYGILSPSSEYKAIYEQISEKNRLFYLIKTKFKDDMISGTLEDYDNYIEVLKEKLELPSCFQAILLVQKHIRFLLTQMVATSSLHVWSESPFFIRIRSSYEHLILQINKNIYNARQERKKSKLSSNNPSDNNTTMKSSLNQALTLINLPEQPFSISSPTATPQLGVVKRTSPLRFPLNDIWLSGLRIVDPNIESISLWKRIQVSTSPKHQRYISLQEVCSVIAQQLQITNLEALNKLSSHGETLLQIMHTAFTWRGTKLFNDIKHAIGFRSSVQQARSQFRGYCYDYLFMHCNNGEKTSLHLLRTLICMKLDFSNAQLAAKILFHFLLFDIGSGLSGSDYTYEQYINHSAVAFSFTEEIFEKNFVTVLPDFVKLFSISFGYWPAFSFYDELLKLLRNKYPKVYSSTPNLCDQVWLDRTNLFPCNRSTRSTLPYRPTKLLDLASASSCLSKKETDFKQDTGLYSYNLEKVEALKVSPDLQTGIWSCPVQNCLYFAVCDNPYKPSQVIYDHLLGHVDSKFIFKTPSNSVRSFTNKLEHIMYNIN
T2 sequence (Q10426 whole entry, chain 3 of 3): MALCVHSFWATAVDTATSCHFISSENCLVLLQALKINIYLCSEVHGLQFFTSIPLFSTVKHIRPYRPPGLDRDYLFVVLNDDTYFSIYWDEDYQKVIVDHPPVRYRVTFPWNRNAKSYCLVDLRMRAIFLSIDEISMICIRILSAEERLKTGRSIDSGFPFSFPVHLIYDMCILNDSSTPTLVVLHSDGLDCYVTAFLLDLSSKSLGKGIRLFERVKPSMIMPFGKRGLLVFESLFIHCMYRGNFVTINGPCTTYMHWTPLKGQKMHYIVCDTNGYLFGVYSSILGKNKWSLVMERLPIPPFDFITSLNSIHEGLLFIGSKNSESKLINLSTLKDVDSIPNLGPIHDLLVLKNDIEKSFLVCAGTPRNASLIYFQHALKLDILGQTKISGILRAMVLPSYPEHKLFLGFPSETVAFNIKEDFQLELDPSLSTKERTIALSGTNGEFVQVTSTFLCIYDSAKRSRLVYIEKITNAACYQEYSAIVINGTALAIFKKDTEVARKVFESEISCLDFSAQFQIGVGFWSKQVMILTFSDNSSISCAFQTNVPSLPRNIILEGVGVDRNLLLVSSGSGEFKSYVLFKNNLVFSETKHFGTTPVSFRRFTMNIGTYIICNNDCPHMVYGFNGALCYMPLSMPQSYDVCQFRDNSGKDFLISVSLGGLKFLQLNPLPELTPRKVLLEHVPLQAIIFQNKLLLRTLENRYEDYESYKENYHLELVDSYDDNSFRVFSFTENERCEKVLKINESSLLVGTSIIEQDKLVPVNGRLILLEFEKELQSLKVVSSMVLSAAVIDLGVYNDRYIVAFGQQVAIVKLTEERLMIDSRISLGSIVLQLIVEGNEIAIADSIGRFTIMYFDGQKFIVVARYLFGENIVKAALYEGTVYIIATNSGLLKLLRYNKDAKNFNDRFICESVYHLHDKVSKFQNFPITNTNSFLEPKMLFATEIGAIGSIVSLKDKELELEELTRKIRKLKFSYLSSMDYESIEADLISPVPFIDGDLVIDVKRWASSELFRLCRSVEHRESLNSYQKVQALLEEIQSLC
T2 sequence (O14122 whole entry, chain 4 of 3): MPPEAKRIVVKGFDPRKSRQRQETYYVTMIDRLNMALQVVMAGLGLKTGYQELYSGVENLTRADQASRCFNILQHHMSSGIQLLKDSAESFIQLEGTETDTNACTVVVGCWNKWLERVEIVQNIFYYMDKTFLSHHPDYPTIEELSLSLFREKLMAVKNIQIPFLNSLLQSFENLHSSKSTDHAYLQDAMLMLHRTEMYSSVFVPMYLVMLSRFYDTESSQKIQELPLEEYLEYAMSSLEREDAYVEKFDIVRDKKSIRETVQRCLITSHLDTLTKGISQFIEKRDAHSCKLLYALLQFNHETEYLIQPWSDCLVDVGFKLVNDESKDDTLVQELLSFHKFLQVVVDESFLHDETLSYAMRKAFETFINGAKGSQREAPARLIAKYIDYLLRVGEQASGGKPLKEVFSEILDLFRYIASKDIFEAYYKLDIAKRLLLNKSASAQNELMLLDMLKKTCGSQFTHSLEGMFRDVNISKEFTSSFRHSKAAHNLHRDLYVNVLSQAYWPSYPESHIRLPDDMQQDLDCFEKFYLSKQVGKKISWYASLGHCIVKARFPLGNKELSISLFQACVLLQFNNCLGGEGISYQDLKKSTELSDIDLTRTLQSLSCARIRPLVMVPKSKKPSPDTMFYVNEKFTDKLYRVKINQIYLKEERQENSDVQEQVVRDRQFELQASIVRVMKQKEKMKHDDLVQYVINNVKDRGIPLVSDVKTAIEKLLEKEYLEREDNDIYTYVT

B1: Clr4N-Set2 (Clr4 chromodomain-hinge fused to the SET domain of S. pombe Set2) (other, UniProt O60016 1-192, looked up)
chain: MSPKQEEYEVERIVDEKLDRNGAVKLYRIRWLNYSSRSDTWEPPENLSGCSAVLAEWKRRKRRLKGSNSDSDSPHHASNPHPNSRQKHQHQTSKSVPRSQRFSRELNVKKENKKVFSSQTTKRQSRKQSTALTTNDTSIILDDSLHTNSKKLGKTRNEVKEESQKRELVSNSIKEATSPKTSSILTKPRNPSLFHHLDSAKDKALTTFEEIQECQYASANIGKPPENEAMICDCRPHWVDGVNVACGHGSNCINRMTSIECTDEDNVCGPSCQNQRFQRHEFAKVDVFLTEKKGFGLRADANLPKDTFVYEYIGEVIPEQKFRKRMRQYDSEGIKHFYFMMLQKGEYIDATKRGSLARFCNHSCRPNCYVDKWMVGDKLRMGIFCKRDIIRGEELTFDYNVDRYGAQAQPCYCGEPCCVGYIGGKTQTEAQSK
notes: Clr4, S. pombe, chromodomain and hinge region, amino acids 1-192 (GST-Clr4 ΔSET); Set2 H3K36 methyltransferase, S. pombe, SET domain, amino acids 90-330, fused to the C-terminus of Clr4 ΔSET; also called GST-Clr4 CD-Hinge-Set2; GST-Clr4N-Set2
Take B1: the binding result (with 6×His-MBP-Raf1; in assay [1]) was “binds” throughout.

B2: Clr4 ΔSET (amino acids 1–192) (domain or fragment, S. pombe, UniProt O60016 1-192, looked up)
chain: MSPKQEEYEVERIVDEKLDRNGAVKLYRIRWLNYSSRSDTWEPPENLSGCSAVLAEWKRRKRRLKGSNSDSDSPHHASNPHPNSRQKHQHQTSKSVPRSQRFSRELNVKKENKKVFSSQTTKRQSRKQSTALTTNDTSIILDDSLHTNSKKLGKTRNEVKEESQKRELVSNSIKEATSPKTSSILTKPRNPS
notes: Clr4, S. pombe, chromodomain and hinge region, amino acids 1-192; also called GST-Clr4 ΔSET
For B2, in the assay with 6×His-MBP-Raf1, the binding result is reported as “binds”.
